Like-named read-outs stand apart in the source and are kept apart here.
What was measured:
[1] = tested on: HPPD polypeptides (wild-type SEQ ID NO:1 and mutants)
[2] = tested on: E. coli cells expressing an HPPD polypeptide; assay: Brown color bioassay in liquid culture, residual brown color formation (BCF), OD440 after 96 hours; assay type: cell-based; conditions: for Control BCF OD440nm: brown color formation in absence of Cmpd. 1, culture supernatant after 96 hours, 5 mM HPP; for Residual BCF OD440nm [%]: brown color formation with Cmpd. 1 (1000 μM) relative to without, after 96 hours
Protocol: In an additional experiment, mutant HPPD polypeptides were analyzed using the principle of a colorimetric brown color assay (as, for example, described in U.S. Pat. No. 6,768,044). Bacterial cells expressing the HPPD polypeptides according to this invention were assayed in 96 well plate format (Nunc® 96 DeepWell™ plate, Sigma-Aldrich, St. Louis, USA) for HPPD polypeptides with improved HPPD inhibitor herbicide tolerance.
E. coli cells were grown in liquid LB medium (Carl Roth GmbH+Co. KG, Karlsruhe, Germany) containing the selection agent for the expression vector pSE420(RI)NX (WO2014/043435) and 5 mM para-hydroxyphenylpyruvate (HPP; Sigma-Aldrich, St. Louis, USA), in the presence of absence of the HPPD inhibitor herbicide e.g. Cmpd. 1 (1000 μM). An overnight culture of E. coli culture expressing one of the respective HPPD polypeptides according to this invention were adjusted to an OD600 of 0.3-0.5 in a final volume of 500 μL and incubated at 30 degree Celsius. Residual brown color formation was determined by measuring the brown color formation (BCF) in the presence and absence of Cmpd. […] Therefore, after 96 hours the culture was centrifuged and the supernatant of the culture was used to measure the optical density of the soluble brown pigment formation at 440 nm (OD440 nm).

[3] = in the presence of Cmpd. 1, 15 μM inhibitor, high substrate concentration, kapp normalized to kapp without inhibitor
[4] = in the presence of Cmpd. 1, 15 μM inhibitor, high substrate concentration, total change in signal normalized to no inhibitor
[5] = in the presence of Cmpd. 2, 15 μM inhibitor, high substrate concentration, kapp normalized to kapp without inhibitor
[6] = in the presence of Cmpd. 2, 15 μM inhibitor, high substrate concentration, total change in signal normalized to no inhibitor
[7] = in the presence of diketonitrile (DKN), 60 μM inhibitor, high substrate concentration, kapp normalized to kapp without inhibitor
[8] = in the presence of diketonitrile (DKN), 60 μM inhibitor, high substrate concentration, total change in signal normalized to no inhibitor
[9] = in the presence of mesotrione (MST), 60 μM inhibitor, high substrate concentration, kapp normalized to kapp without inhibitor
[10] = in the presence of mesotrione (MST), 60 μM inhibitor, high substrate concentration, total change in signal normalized to no inhibitor
[11] = kapp in presence of 50 μM Cmpd. 1, normalised to kapp without inhibitor, low substrate concentration
[12] = total change in signal in presence of 50 μM Cmpd. 1, normalised to that without inhibitor, low substrate concentration

B1: 29 (protein)
chain: MADLYENPMGLMGFEFIEFASPTPGTLEPIFEIMGFTKVATHRSKNVHLYRQGEINLILNNEPNSIASYFAAEHGPSVCGMAFRVKDSQKAYNRALELGAQPIHIDTGPMELNLPAIKGIGGAPLYLIDRFGEGSSIYDIDFVYLEGVERNPVGAGLKVIDHLTHNVYRGRMVYWANFYEKLFNFREARYFDIKGEYTGLTSKAMSAPDGMIRIPLNEESSKGAGQIEEFLMQFNGEGIQHVAFLTDDLVKTWDALKKIGMRFMTAPSDSYYEMLEGRLPDHGEPVDQLQARGILLDGSSVEGDKRLLLQIFSETLMGPVFFEFIQRKGDDGFGPHSFKVLFESVERDQVRRGVLTAD
modifications: mutant HPPD polypeptide
[1]; [3]
  Residual activity: 33%
[1]; [4]
  Residual turnover: 59%
[1]; [5]
  Residual activity: 85%
[1]; [6]
  Residual turnover: n.i.
[1]; [7]
  Residual activity: 94%
[1]; [8]
  Residual turnover: n.i.
[1]; [9]
  Residual activity: 79%
[1]; [10]
  Residual turnover: 95%
[2]
  Control BCF OD440nm: 2.03
  Residual BCF OD440nm [%]: 42%

B2: 30 (protein)
chain: MADLYENPMGLMGFEFIEFASPTPGTLEPIFEIMGFTKVATHRSKNVHLYRQGEINLILNNEPNSIASYFAAEHGPSVCGMAFRVKDSQKAYNRALELGAQPIHIDTGPMELNLPAIKGIGGAPLYLIDRFGEGSSIYDIDFVYLEGVERNPVGAGLKVIDHLTHNVYRGRMVYWANFYEKLFNFREARYFDIKGEYTGLTSKAMSAPDGMIRIPLNEESSKGAGQIEEFLMQFNGEGIQHVAFLTDDLVKTWDALKKIGMRFMTAPSDSYYEMLEGRLPDHGEPVDQLQARGILLDGSSVEGDKRLLLQIFSETLMGPVFFEFIQRKGDDGFGPHSFKVLFESKERDQVRRGVLTAD
modifications: mutant HPPD polypeptide
[1]; [3]
  Residual activity: 39%
[1]; [4]
  Residual turnover: 65%
[1]; [5]
  Residual activity: 95%
[1]; [6]
  Residual turnover: n.i.
[1]; [7]
  Residual activity: n.i. (no inhibition was observed under the given conditions)
[1]; [8]
  Residual turnover: n.i.
[1]; [9]
  Residual activity: 87%
[1]; [10]
  Residual turnover: n.i.
[2]
  Control BCF OD440nm: 1.70
  Residual BCF OD440nm [%]: 56%

B3: 7 (protein)
chain: MADLYENPMGLMGFEFIEFASPTPGTLEPIFEIMGFTKVATHRSKNVHLYRQGEINLILNNEPNSIASYFAAEHGPSVCGMAFRVKDSQKAYNRALELGAQPIHIDTGPMELNLPAIKGIGGAPLYLIDRFGEGSSIYDIDFVYLEGVERNPVGAGLKVIDHLTHNVYRGRMVYWANFYEKLFNFREARYFDIKGEYTGLTSKAMSAPDGMIRIPLNEESSKGAGQIEEFLMQFNGEGIQHVAFLTDDLVKTWDALKKIGMRFMTAPPDTYYEMLEGRLPDHGEPVDQLQARGILLDGSSVEGDKRLLLQIFSETLMGPVFFEFIQRKGDDGFGPDSFKALFESIERDQVRRGVLTAD
modifications: mutant HPPD polypeptide
[1]; [3]
  Residual activity: 27%
[1]; [4]
  Residual turnover: 38%
[1]; [5]
  Residual activity: 75%
[1]; [6]
  Residual turnover: 83%
[1]; [7]
  Residual activity: 79%
[1]; [8]
  Residual turnover: 92%
[1]; [9]
  Residual activity: 70%
[1]; [10]
  Residual turnover: 85%
[2]
  Control BCF OD440nm: 1.83
  Residual BCF OD440nm [%]: 40%

B4: 10 (protein)
chain: MADLYENPMGLMGFEFIEFASPTPGTLEPIFEIMGFTKVATHRSKNVHLYRQGEINLILNNEPNSIASYFAAEHGPSVCGMAFRVKDSQKAYNRALELGAQPIHIDTGPMELNLPAIKGIGGAPLYLIDRFGEGSSIYDIDFVYLEGVERNPVGAGLKVIDHLTHNVYRGRMVYWANFYEKLFNFREARYFDIKGEYTGLTSKAMSAPDGMIRIPLNEESSKGAGQIEEFLMQFNGEGIQHVAFLTDDLVKTWDALKKIGMRFMTAPPDTYYEMLEGRLPDHGEPVDQLQARGILLDGSSVEGDKRLLLQIFSETLMGPVFFEFIQRKGDDGFGPDSFKVLFESVERDQVRRGVLTAD
modifications: mutant HPPD polypeptide
[1]; [3]
  Residual activity: 41%
[1]; [4]
  Residual turnover: 66%
[1]; [5]
  Residual activity: 89%
[1]; [6]
  Residual turnover: n.i.
[1]; [7]
  Residual activity: n.i. (no inhibition was observed under the given conditions)
[1]; [8]
  Residual turnover: n.i.
[1]; [9]
  Residual activity: 82%
[1]; [10]
  Residual turnover: n.i.
[2]
  Control BCF OD440nm: 1.09
  Residual BCF OD440nm [%]: 65%

B5: 86 (protein)
chain: MADLYENPMGLMGFEFIEFASPTPGTLEPIFEIMGFTKVATHRSKNVHLYRQGEINLILNNEPNSIASYFAAEHGPSVCGMAFRVKDSQKAYNRALELGAQPIHIDTGPMELNLPAIKGIGGAPLYLIDRFGEGSSIYDIDFVYLEGVERNPVGAGLKVIDHLTHNVYRGRMVYWANFYEKLFNFREARYFDIKGEYTGLTSKAMSAPDGMIRIPLNEESSKGAGQIEEFLMQFNGEGIQHVAFLTDDLVKTWDALKKIGMRFMTAPGDEYYEMLEGRLPDHGEPVDQLQARGILLDGSSVEGDKRLLLQIFSETLMGPVFFEFIQRKGDDGFGPDSFKQLFESVERDQVRRGVLTAD
modifications: mutant HPPD polypeptide
[1]; [11]
  Residual activity: 23%
[1]; [12]
  Residual turnover: 45%
[2]
  Control BCF OD440nm: 1.94
  Residual BCF OD440nm [%]: 74%

B6: 59 (protein)
chain: MADLYENPMGLMGFEFIEFASPTPGTLEPIFEIMGFTKVATHRSKNVHLYRQGEINLILNNEPNSIASYFAAEHGPSVCGMAFRVKDSQKAYNRALELGAQPIHIDTGPMELNLPAIKGIGGAPLYLIDRFGEGSSIYDIDFVYLEGVERNPVGAGLKVIDHLTHNVYRGRMVYWANFYEKLFNFREARYFDIKGEYTGLTSKAMSAPDGMIRIPLNEESSKGAGQIEEFLMQFNGEGIQHVAFLTDDLVKTWDALKKIGMRFMTAPGDEYYEMLEGRLPDHGEPVDQLQARGILLDGSSVEGDKRLLLQIFSETLMGPVFFEFIQRKGDDGFGPDSFKVLFERVERDQVRRGVLTAD
modifications: mutant HPPD polypeptide
[1]; [11]
  Residual activity: 19%
[1]; [12]
  Residual turnover: 46%
[2]
  Control BCF OD440nm: 1.29
  Residual BCF OD440nm [%]: 51%

B7: 87 (protein)
chain: MADLYENPMGLMGFEFIEFASPTPGTLEPIFEIMGFTKVATHRSKNVHLYRQGEINLILNNEPNSIASYFAAEHGPSVCGMAFRVKDSQKAYNRALELGAQPIHIDTGPMELNLPAIKGIGGAPLYLIDRFGEGSSIYDIDFVYLEGVERNPVGAGLKVIDHLTHNVYRGRMVYWANFYEKLFNFREARYFDIKGEYTGLTSKAMSAPDGMIRIPLNEESSKGAGQIEEFLMQFNGEGIQHVAFLTDDLVKTWDALKKIGMRFMTAPGDEYYEMLEGRLPDHGEPVDQLQARGILLDGSSVEGDKRLLLQIFSETLMGPVFFEFIQRKGDDGFGPDSFKVLFESAERDQVRRGVLTAD
modifications: mutant HPPD polypeptide
[1]; [11]
  Residual activity: 17%
[1]; [12]
  Residual turnover: 53%
[2]
  Control BCF OD440nm: 1.91
  Residual BCF OD440nm [%]: 68%

B8: 88 (protein)
chain: MADLYENPMGLMGFEFIEFASPTPGTLEPIFEIMGFTKVATHRSKNVHLYRQGEINLILNNEPNSIASYFAAEHGPSVCGMAFRVKDSQKAYNRALELGAQPIHIDTGPMELNLPAIKGIGGAPLYLIDRFGEGSSIYDIDFVYLEGVERNPVGAGLKVIDHLTHNVYRGRMVYWANFYEKLFNFREARYFDIKGEYTGLTSKAMSAPDGMIRIPLNEESSKGAGQIEEFLMQFNGEGIQHVAFLTDDLVKTWDALKKIGMRFMTAPGDEYYEMLEGRLPDHGEPVDQLQARGILLDGSSVEGDKRLLLQIFSETLMGPVFFEFIQRKGDDGFGPDSFKVLFESIERDQVRRGVLTAD
modifications: mutant HPPD polypeptide
[1]; [11]
  Residual activity: 20%
[1]; [12]
  Residual turnover: 44%
[2]
  Control BCF OD440nm: 2.21
  Residual BCF OD440nm [%]: 77%

B9: 89 (protein)
chain: MADLYENPMGLMGFEFIEFASPTPGTLEPIFEIMGFTKVATHRSKNVHLYRQGEINLILNNEPNSIASYFAAEHGPSVCGMAFRVKDSQKAYNRALELGAQPIHIDTGPMELNLPAIKGIGGAPLYLIDRFGEGSSIYDIDFVYLEGVERNPVGAGLKVIDHLTHNVYRGRMVYWANFYEKLFNFREARYFDIKGEYTGLTSKAMSAPDGMIRIPLNEESSKGAGQIEEFLMQFNGEGIQHVAFLTDDLVKTWDALKKIGMRFMTAPGDEYYEMLEGRLPDHGEPVDQLQARGILLDGSSVEGDKRLLLQIFSETLMGPVFFEFIQRKGDDGFGPDSFKVLFESKERDQVRRGVLTAD
modifications: mutant HPPD polypeptide
[1]; [11]
  Residual activity: 23%
[1]; [12]
  Residual turnover: 43%
[2]
  Control BCF OD440nm: 2.36
  Residual BCF OD440nm [%]: 67%

Reference: patent publication US10597674B2, “HPPD variants and methods of use” (BASF Agricultural Solutions Seed, US LLC, priority 2015, dated 2020)
